Test results reported in patent publication US20060153775A1.

Experiments:
[1] = target: binding target for TKPPR on HAEC (human aortic endothelial cells); test: fluorescent beads on confluent HAEC, static 30 min, image analysis
[2] = target: binding target for TKPPR on HAEC (human aortic endothelial cells); test: competition of 2% D47 bubble binding to HAEC; VEGF121 100 ng/mL
[3] = target: binding target for TKPPR on HAEC (human aortic endothelial cells); test: competition of 2% D47 bubble binding to HAEC; VEGF121 400 ng/mL
[4] = target: binding target for TKPPR on HAEC (human aortic endothelial cells); test: competition of 2% D47 bubble binding to HAEC; VEGF121 200 ng/mL
[5] = target: binding target for TKPPR on HAEC (human aortic endothelial cells); test: competition of 5% composition bubble binding to HAEC; VEGF165 75 ng/mL
[6] = target: binding target for TKPPR on HAEC (human aortic endothelial cells); test: competition of 5% composition bubble binding to HAEC; VEGF165 6.25 ng/mL
[7] = target: binding target for TKPPR on HAEC (human aortic endothelial cells); test: competition of 5% composition bubble binding to HAEC
[8] = target: binding target for TKPPR on HAEC (human aortic endothelial cells); test: competition of 5% composition bubble binding to HAEC; VEGF165 50 ng/mL
[9] = target: binding target for TKPPR on HAEC (human aortic endothelial cells); test: competition of 2% D47 bubble binding to HAEC; VEGF165 25 ng/mL
[10] = target: binding target for TKPPR on HAEC (human aortic endothelial cells); test: competition of 5% composition bubble binding to HAEC; VEGF165 25 ng/mL
[11] = target: binding target for TKPPR on HAEC (human aortic endothelial cells); test: competition of 2% D47 bubble binding to HAEC; VEGF165 100 ng/mL
[12] = target: binding target for TKPPR on HAEC (human aortic endothelial cells); test: competition of 5% composition bubble binding to HAEC; VEGF165 12.5 ng/mL
[13] = target: binding target for TKPPR on HAEC (human aortic endothelial cells); test: competition of 5% composition bubble binding to HAEC; KDR/Fc 125 ng/mL
[14] = target: binding target for TKPPR on HAEC (human aortic endothelial cells); test: competition of 5% composition bubble binding to HAEC; KDR/Fc 1000 ng/mL
[15] = target: binding target for TKPPR on HAEC (human aortic endothelial cells); test: competition of 5% composition bubble binding to HAEC; KDR/Fc 500 ng/mL
[16] = target: binding target for TKPPR on HAEC (human aortic endothelial cells); test: competition of 5% composition bubble binding to HAEC; KDR/Fc 250 ng/mL
[17] = target: binding target for TKPPR on HAEC (human aortic endothelial cells); test: competition of 5% composition bubble binding to HAEC; KDR/Fc 2500 ng/mL

soluble human KDR/Fc chimera (R&D Systems Inc.), sequence (P35968 20-764, change not shown): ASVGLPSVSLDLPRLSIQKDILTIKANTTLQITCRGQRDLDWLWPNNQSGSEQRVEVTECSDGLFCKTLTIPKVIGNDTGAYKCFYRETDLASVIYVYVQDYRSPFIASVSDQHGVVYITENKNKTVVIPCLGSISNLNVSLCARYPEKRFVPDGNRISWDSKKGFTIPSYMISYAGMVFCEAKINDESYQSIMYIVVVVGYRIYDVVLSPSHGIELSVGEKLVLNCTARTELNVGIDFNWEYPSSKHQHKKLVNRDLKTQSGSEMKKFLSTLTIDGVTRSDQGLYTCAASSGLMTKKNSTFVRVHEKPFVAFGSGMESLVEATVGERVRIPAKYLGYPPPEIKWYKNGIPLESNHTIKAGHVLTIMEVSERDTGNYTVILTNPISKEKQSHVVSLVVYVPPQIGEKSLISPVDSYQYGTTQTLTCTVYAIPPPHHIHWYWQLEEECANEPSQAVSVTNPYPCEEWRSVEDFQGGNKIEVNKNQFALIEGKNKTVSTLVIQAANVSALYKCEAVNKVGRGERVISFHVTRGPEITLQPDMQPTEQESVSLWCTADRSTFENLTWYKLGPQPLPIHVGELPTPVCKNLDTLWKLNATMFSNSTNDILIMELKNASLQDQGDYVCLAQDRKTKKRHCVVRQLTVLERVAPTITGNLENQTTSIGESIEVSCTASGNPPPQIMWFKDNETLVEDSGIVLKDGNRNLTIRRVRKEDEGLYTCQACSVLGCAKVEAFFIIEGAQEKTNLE

BSA-conjugated fluorescent microspheres (from UniProt P02769 25-607)
Integrated density of bound beads (arbitrary units) [1]: 1.61

VEGF121 (from UniProt P15692 27-147) (ligand)
Bubbles Bound in presence of competitor [2]: 878 bubbles
Bubbles Bound in presence of competitor [3]: 778 bubbles
Bubbles Bound in presence of competitor [4]: 849 bubbles

VEGF165 (from UniProt P15692 27-191) (ligand)
Bubbles Bound in presence of competitor [5]: 190 bubbles
Bubbles Bound in presence of competitor [6]: 1180 bubbles
IC50 [7]: 0.0125 µg/mL
Bubbles Bound in presence of competitor [8]: 226 bubbles
Bubbles Bound in presence of competitor [9]: 144 bubbles
Bubbles Bound in presence of competitor [10]: 342 bubbles
Bubbles Bound in presence of competitor [11]: 94 bubbles
Bubbles Bound in presence of competitor [12]: 599 bubbles

soluble human KDR/Fc chimera (R&D Systems Inc.) (from UniProt P35968 20-764) (Fc fusion)
Bubbles Bound in presence of competitor [13]: 1030 bubbles
Bubbles Bound in presence of competitor [14]: 75 bubbles
Bubbles Bound in presence of competitor [15]: 342 bubbles
Bubbles Bound in presence of competitor [16]: 786 bubbles
Bubbles Bound in presence of competitor [17]: 84 bubbles
